Reference: US20180273587A1 (AILERON THERAPEUTICS, published 2018)
Starred links: 1 amine or outer side, 2 acyl side, 3 side chain; linkers in the order of their positions; H or OH if unused. Positions of bridges follow the written chain, without caps; N, C: chain ends. Non-standard residues stand in square brackets, D forms with d. St = two pentenyl-alanine olefin side chains, each crosslinked to another residue (stitch), C=CCCCC(CCCC=C)(N[*:1])C(=O)[*:2]; Phe(4-CF3) = N[C@@H](Cc1ccc(C(F)(F)F)cc1)C(=O)O; Phe(4-tBu) = CC(C)(C)c1ccc(C[C@H](N)C(=O)O)cc1; Phe(4-F) = N[C@@H](Cc1ccc(F)cc1)C(=O)O; 2Nal = N[C@@H](Cc1ccc2ccccc2c1)C(=O)O; R8 = C=CCCCCCC[C@@](C)(N)C(=O)O; S8 = C=CCCCCCC[C@](C)(N)C(=O)O; S5 = C=CCCC[C@](C)(N)C(=O)O; Abu = CC[C@H](N)C(=O)O

B1: SEQ ID NO: 1745 (peptide)
peptide: Ac-IWIAQALR[R8]IGDA[Phe(4-tBu)]N[S5]YYA-NH2
modifications: staple 9-16
SMILES: CC[C@H](C)[C@H](NC(C)=O)C(=O)N[C@@H](Cc1c[nH]c2ccccc12)C(=O)N[C@H](C(=O)N[C@@H](C)C(=O)N[C@@H](CCC(N)=O)C(=O)N[C@@H](C)C(=O)N[C@@H](CC(C)C)C(=O)N[C@@H](CCCNC(=N)N)C(=O)N[C@]1(C)CCCCCCC=CCCC[C@@](C)(C(=O)N[C@@H](Cc2ccc(O)cc2)C(=O)N[C@@H](Cc2ccc(O)cc2)C(=O)N[C@@H](C)C(N)=O)NC(=O)[C@H](CC(N)=O)NC(=O)[C@H](Cc2ccc(C(C)(C)C)cc2)NC(=O)[C@H](C)NC(=O)[C@H](CC(=O)O)NC(=O)CNC(=O)[C@H]([C@@H](C)CC)NC1=O)[C@@H](C)CC
B2: SEQ ID NO: 1738 (peptide)
peptide: Ac-IWIAAALR[R8]I[Abu]DAFN[S5]YYA-NH2
modifications: staple 9-16
SMILES: CC[C@@H]1NC(=O)[C@H]([C@@H](C)CC)NC(=O)[C@](C)(NC(=O)[C@H](CCCNC(=N)N)NC(=O)[C@H](CC(C)C)NC(=O)[C@H](C)NC(=O)[C@H](C)NC(=O)[C@H](C)NC(=O)[C@@H](NC(=O)[C@H](Cc2c[nH]c3ccccc23)NC(=O)[C@@H](NC(C)=O)[C@@H](C)CC)[C@@H](C)CC)CCCCCCC=CCCC[C@@](C)(C(=O)N[C@@H](Cc2ccc(O)cc2)C(=O)N[C@@H](Cc2ccc(O)cc2)C(=O)N[C@@H](C)C(N)=O)NC(=O)[C@H](CC(N)=O)NC(=O)[C@H](Cc2ccccc2)NC(=O)[C@H](C)NC(=O)[C@H](CC(=O)O)NC1=O
B3: SEQ ID NO: 1759 (peptide)
peptide: Ac-IWIAQALR[R8]IGDAFN[S5]Y[2Nal]A-NH2
modifications: staple 9-16
SMILES: CC[C@H](C)[C@H](NC(C)=O)C(=O)N[C@@H](Cc1c[nH]c2ccccc12)C(=O)N[C@H](C(=O)N[C@@H](C)C(=O)N[C@@H](CCC(N)=O)C(=O)N[C@@H](C)C(=O)N[C@@H](CC(C)C)C(=O)N[C@@H](CCCNC(=N)N)C(=O)N[C@]1(C)CCCCCCC=CCCC[C@@](C)(C(=O)N[C@@H](Cc2ccc(O)cc2)C(=O)N[C@@H](Cc2ccc3ccccc3c2)C(=O)N[C@@H](C)C(N)=O)NC(=O)[C@H](CC(N)=O)NC(=O)[C@H](Cc2ccccc2)NC(=O)[C@H](C)NC(=O)[C@H](CC(=O)O)NC(=O)CNC(=O)[C@H]([C@@H](C)CC)NC1=O)[C@@H](C)CC
B4: SEQ ID NO: 1782 (peptide)
peptide: Ac-I[R8]IAQALR[St]IGDEFN[S8]YYA-NH2
modifications: staple 9-16, 2-9
notes: Row prints Ac-I$r8IAQALRStIGDEFN$s8YYA-NH2
B5: SEQ ID NO: 1783 (peptide)
peptide: Ac-IWIA[S5]ALR[St]IGDEFN[S8]YYA-NH2
modifications: staple 9-16, 5-9
notes: Row prints Ac-IWIA$ALRStIGDEFN$s8YYA-NH2
B6: SEQ ID NO: 1775 (peptide)
peptide: Ac-IWIAQALR[R8]IGDAFN[S5]AYA-NH2
modifications: staple 9-16
SMILES: CC[C@H](C)[C@H](NC(C)=O)C(=O)N[C@@H](Cc1c[nH]c2ccccc12)C(=O)N[C@H](C(=O)N[C@@H](C)C(=O)N[C@@H](CCC(N)=O)C(=O)N[C@@H](C)C(=O)N[C@@H](CC(C)C)C(=O)N[C@@H](CCCNC(=N)N)C(=O)N[C@]1(C)CCCCCCC=CCCC[C@@](C)(C(=O)N[C@@H](C)C(=O)N[C@@H](Cc2ccc(O)cc2)C(=O)N[C@@H](C)C(N)=O)NC(=O)[C@H](CC(N)=O)NC(=O)[C@H](Cc2ccccc2)NC(=O)[C@H](C)NC(=O)[C@H](CC(=O)O)NC(=O)CNC(=O)[C@H]([C@@H](C)CC)NC1=O)[C@@H](C)CC
B7: SEQ ID NO: 1769 (peptide)
peptide: Ac-IWIAQALR[R8]IGDAFN[S5][Phe(4-F)]YA-NH2
modifications: staple 9-16
SMILES: CC[C@H](C)[C@H](NC(C)=O)C(=O)N[C@@H](Cc1c[nH]c2ccccc12)C(=O)N[C@H](C(=O)N[C@@H](C)C(=O)N[C@@H](CCC(N)=O)C(=O)N[C@@H](C)C(=O)N[C@@H](CC(C)C)C(=O)N[C@@H](CCCNC(=N)N)C(=O)N[C@]1(C)CCCCCCC=CCCC[C@@](C)(C(=O)N[C@@H](Cc2ccc(F)cc2)C(=O)N[C@@H](Cc2ccc(O)cc2)C(=O)N[C@@H](C)C(N)=O)NC(=O)[C@H](CC(N)=O)NC(=O)[C@H](Cc2ccccc2)NC(=O)[C@H](C)NC(=O)[C@H](CC(=O)O)NC(=O)CNC(=O)[C@H]([C@@H](C)CC)NC1=O)[C@@H](C)CC
B8: SEQ ID NO: 1740 (peptide)
peptide: Ac-IWIAAALR[R8]IGEAFN[S5]YYA-NH2
modifications: staple 9-16
SMILES: CC[C@H](C)[C@H](NC(C)=O)C(=O)N[C@@H](Cc1c[nH]c2ccccc12)C(=O)N[C@H](C(=O)N[C@@H](C)C(=O)N[C@@H](C)C(=O)N[C@@H](C)C(=O)N[C@@H](CC(C)C)C(=O)N[C@@H](CCCNC(=N)N)C(=O)N[C@]1(C)CCCCCCC=CCCC[C@@](C)(C(=O)N[C@@H](Cc2ccc(O)cc2)C(=O)N[C@@H](Cc2ccc(O)cc2)C(=O)N[C@@H](C)C(N)=O)NC(=O)[C@H](CC(N)=O)NC(=O)[C@H](Cc2ccccc2)NC(=O)[C@H](C)NC(=O)[C@H](CCC(=O)O)NC(=O)CNC(=O)[C@H]([C@@H](C)CC)NC1=O)[C@@H](C)CC
B9: SEQ ID NO: 1744 (peptide)
peptide: Ac-IWIAQALR[R8]IGDA[Phe(4-CF3)]N[S5]YYA-NH2
modifications: staple 9-16
SMILES: CC[C@H](C)[C@H](NC(C)=O)C(=O)N[C@@H](Cc1c[nH]c2ccccc12)C(=O)N[C@H](C(=O)N[C@@H](C)C(=O)N[C@@H](CCC(N)=O)C(=O)N[C@@H](C)C(=O)N[C@@H](CC(C)C)C(=O)N[C@@H](CCCNC(=N)N)C(=O)N[C@]1(C)CCCCCCC=CCCC[C@@](C)(C(=O)N[C@@H](Cc2ccc(O)cc2)C(=O)N[C@@H](Cc2ccc(O)cc2)C(=O)N[C@@H](C)C(N)=O)NC(=O)[C@H](CC(N)=O)NC(=O)[C@H](Cc2ccc(C(F)(F)F)cc2)NC(=O)[C@H](C)NC(=O)[C@H](CC(=O)O)NC(=O)CNC(=O)[C@H]([C@@H](C)CC)NC1=O)[C@@H](C)CC
B10: SEQ ID NO: 1739 (peptide)
peptide: Ac-IWIAAALR[R8]IVDAFN[S5]YYA-NH2
modifications: staple 9-16
SMILES: CC[C@H](C)[C@H](NC(C)=O)C(=O)N[C@@H](Cc1c[nH]c2ccccc12)C(=O)N[C@H](C(=O)N[C@@H](C)C(=O)N[C@@H](C)C(=O)N[C@@H](C)C(=O)N[C@@H](CC(C)C)C(=O)N[C@@H](CCCNC(=N)N)C(=O)N[C@]1(C)CCCCCCC=CCCC[C@@](C)(C(=O)N[C@@H](Cc2ccc(O)cc2)C(=O)N[C@@H](Cc2ccc(O)cc2)C(=O)N[C@@H](C)C(N)=O)NC(=O)[C@H](CC(N)=O)NC(=O)[C@H](Cc2ccccc2)NC(=O)[C@H](C)NC(=O)[C@H](CC(=O)O)NC(=O)[C@H](C(C)C)NC(=O)[C@H]([C@@H](C)CC)NC1=O)[C@@H](C)CC
B11: SEQ ID NO: 1741 (peptide)
peptide: Ac-IWIAAALR[R8]IGDAGN[S5]YYA-NH2
modifications: staple 9-16
SMILES: CC[C@H](C)[C@H](NC(C)=O)C(=O)N[C@@H](Cc1c[nH]c2ccccc12)C(=O)N[C@H](C(=O)N[C@@H](C)C(=O)N[C@@H](C)C(=O)N[C@@H](C)C(=O)N[C@@H](CC(C)C)C(=O)N[C@@H](CCCNC(=N)N)C(=O)N[C@]1(C)CCCCCCC=CCCC[C@@](C)(C(=O)N[C@@H](Cc2ccc(O)cc2)C(=O)N[C@@H](Cc2ccc(O)cc2)C(=O)N[C@@H](C)C(N)=O)NC(=O)[C@H](CC(N)=O)NC(=O)CNC(=O)[C@H](C)NC(=O)[C@H](CC(=O)O)NC(=O)CNC(=O)[C@H]([C@@H](C)CC)NC1=O)[C@@H](C)CC
B12: SEQ ID NO: 1737 (peptide)
peptide: Ac-IWIAAALK[R8]IGDAFN[S5]YYA-NH2
modifications: staple 9-16
SMILES: CC[C@H](C)[C@H](NC(C)=O)C(=O)N[C@@H](Cc1c[nH]c2ccccc12)C(=O)N[C@H](C(=O)N[C@@H](C)C(=O)N[C@@H](C)C(=O)N[C@@H](C)C(=O)N[C@@H](CC(C)C)C(=O)N[C@@H](CCCCN)C(=O)N[C@]1(C)CCCCCCC=CCCC[C@@](C)(C(=O)N[C@@H](Cc2ccc(O)cc2)C(=O)N[C@@H](Cc2ccc(O)cc2)C(=O)N[C@@H](C)C(N)=O)NC(=O)[C@H](CC(N)=O)NC(=O)[C@H](Cc2ccccc2)NC(=O)[C@H](C)NC(=O)[C@H](CC(=O)O)NC(=O)CNC(=O)[C@H]([C@@H](C)CC)NC1=O)[C@@H](C)CC
B13: SEQ ID NO: 1748 (peptide)
peptide: Ac-IWIAAALR[R8]IGDAFD[S5]YYA-NH2
modifications: staple 9-16
SMILES: CC[C@H](C)[C@H](NC(C)=O)C(=O)N[C@@H](Cc1c[nH]c2ccccc12)C(=O)N[C@H](C(=O)N[C@@H](C)C(=O)N[C@@H](C)C(=O)N[C@@H](C)C(=O)N[C@@H](CC(C)C)C(=O)N[C@@H](CCCNC(=N)N)C(=O)N[C@]1(C)CCCCCCC=CCCC[C@@](C)(C(=O)N[C@@H](Cc2ccc(O)cc2)C(=O)N[C@@H](Cc2ccc(O)cc2)C(=O)N[C@@H](C)C(N)=O)NC(=O)[C@H](CC(=O)O)NC(=O)[C@H](Cc2ccccc2)NC(=O)[C@H](C)NC(=O)[C@H](CC(=O)O)NC(=O)CNC(=O)[C@H]([C@@H](C)CC)NC1=O)[C@@H](C)CC

Each binder was assayed against T1, MCL-1 (UniProt Q07820 172-327, limits assumed) (assay: Ki; method not stated; unit not printed (nM per Table 6)).
T1 construct: Target of the Ki columns; also called Myeloid cell leukemia 1
T1 sequence (Q07820 172-327 limits assumed): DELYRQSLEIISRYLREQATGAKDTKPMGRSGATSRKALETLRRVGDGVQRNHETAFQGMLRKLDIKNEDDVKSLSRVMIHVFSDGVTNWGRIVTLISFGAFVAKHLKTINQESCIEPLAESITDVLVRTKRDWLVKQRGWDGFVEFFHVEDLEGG

Binder	Ki [nM]
B1	21.2
B2	106
B3	8
B4	1.1
B5	1.6
B6	5.3
B7	14.9
IWIAQALRAIGDAXNAYYA (N-terminal Ac; $r8 at 9 and $ at 16 (crosslinked); Bip at 14; C-terminal NH2) [SEQ ID NO: 1747]	6.5
B8	63.6
B9	8.2
B10	104
B11	29.7
B12	23.2
B13	1.5

These binders were tested against T2, BCL-XL (UniProt Q07817 1-209) in the same assay as above.
T2 construct: Target of the Ki columns
T2 sequence (Q07817 1-209): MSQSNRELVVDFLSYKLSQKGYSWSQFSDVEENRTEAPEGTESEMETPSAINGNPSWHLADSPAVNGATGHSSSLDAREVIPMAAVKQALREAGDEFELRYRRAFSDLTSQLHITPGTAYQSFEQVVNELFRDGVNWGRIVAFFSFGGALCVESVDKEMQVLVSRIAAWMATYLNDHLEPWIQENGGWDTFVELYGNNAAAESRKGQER

Binder	Ki [nM]
B1	154
B2	112
B3	26.1
B4	1.1
B5	1.6
B6	12.6
B7	26
IWIAQALRAIGDAXNAYYA (N-terminal Ac; $r8 at 9 and $ at 16 (crosslinked); Bip at 14; C-terminal NH2) [SEQ ID NO: 1747]	100
B8	135
B9	107
B10	140
B11	171
B12	11.7
B13	25.9

Each binder was assayed against T3, BCL-2 (UniProt P10415 1-217, limits assumed) in the same assay as above.
T3 construct: Target of the Ki columns
T3 sequence (P10415 1-217 limits assumed): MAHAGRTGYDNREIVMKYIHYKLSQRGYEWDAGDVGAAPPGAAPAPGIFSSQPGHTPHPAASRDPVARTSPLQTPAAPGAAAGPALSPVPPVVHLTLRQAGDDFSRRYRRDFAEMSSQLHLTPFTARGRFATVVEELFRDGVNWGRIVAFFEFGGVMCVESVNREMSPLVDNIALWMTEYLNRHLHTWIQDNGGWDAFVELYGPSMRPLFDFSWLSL

Binder	Ki [nM]
B1	158
B2	131
B3	65.2
B4	22
B5	19.2
B6	112
B7	200
IWIAQALRAIGDAXNAYYA (N-terminal Ac; $r8 at 9 and $ at 16 (crosslinked); Bip at 14; C-terminal NH2) [SEQ ID NO: 1747]	114
B8	142
B9	104
B10	120
B11	145
B12	25.6
B13	35.3
